Where two headings read alike, the source gives them in different places.
Experiments:
[1] = molecular target: HLA-DR1 (HLA-DRA*0101, HLA-DRB1*0101) (human); assay: ELISA
[2] = molecular target: HLA-DR1 (HLA-DRA*0101, HLA-DRB1*0101) (human); assay: ELISA; remark: listed apart in the source

Substance | IC50 [1] | IC50 [2]
SARS-CoV-2 Spike peptide S486-505 (Omicron BA.1) | 0.754 µM | –
SARS-CoV-2 Spike peptide S761-775 (Omicron BA.1) | 6.78 µM | –
SARS-CoV-2 Spike peptide S761-775 (Wuhan HU-1) | – | > 10 µM
